Data set [1] has as its target T1, Cas9 (SpCas9) (Streptococcus pyogenes, UniProt Q99ZW2 1-1368). The experiment in a line: smFRET; 20 nM Cas9-RNA; koff <0.006 s-1, lifetime >3 min (photobleaching limit); Immobilized biotin/Cy3 DNA, 20 nM Cas9-RNA (Cy5 crRNA), 0.1 s frames; imaging buffer, pH and temperature not in the material; kon ~6e6 M-1 s-1. Particulars: protein: recombinant, tags: His10-MBP removed by TEV, label: Cy3 (DNA), biotin (DNA), DNA duplex 1:2, 5' overhang 2 nt on strand 1, crRNA 3 : tracrRNA 4, guide pairs strand 2.

Data set [2] has as its target T1, Cas9 (SpCas9). The experiment in a line: smFRET; 20 nM; bound fraction as cognate; Immobilized biotin/Cy3 DNA, 20 nM Cas9-RNA (Cy5 crRNA), 0.1 s frames; imaging buffer, pH and temperature not in the material; kon ~6e6 M-1 s-1. Particulars: protein: recombinant, tags: His10-MBP removed by TEV, label: Cy3, biotin, as N1.
The target of data set [3] is T1, Cas9 (SpCas9). The experiment in a line: smFRET; 20 nM; bound fraction as cognate; bound lifetime ~16 s; Immobilized biotin/Cy3 DNA, 20 nM Cas9-RNA (Cy5 crRNA), 0.1 s frames; imaging buffer, pH and temperature not in the material; kon ~6e6 M-1 s-1. Particulars: protein: recombinant, tags: His10-MBP removed by TEV, label: Cy3, biotin, as N1.

Changes are numbered by the printed parent chain.

T1 sequence (Q99ZW2 whole entry): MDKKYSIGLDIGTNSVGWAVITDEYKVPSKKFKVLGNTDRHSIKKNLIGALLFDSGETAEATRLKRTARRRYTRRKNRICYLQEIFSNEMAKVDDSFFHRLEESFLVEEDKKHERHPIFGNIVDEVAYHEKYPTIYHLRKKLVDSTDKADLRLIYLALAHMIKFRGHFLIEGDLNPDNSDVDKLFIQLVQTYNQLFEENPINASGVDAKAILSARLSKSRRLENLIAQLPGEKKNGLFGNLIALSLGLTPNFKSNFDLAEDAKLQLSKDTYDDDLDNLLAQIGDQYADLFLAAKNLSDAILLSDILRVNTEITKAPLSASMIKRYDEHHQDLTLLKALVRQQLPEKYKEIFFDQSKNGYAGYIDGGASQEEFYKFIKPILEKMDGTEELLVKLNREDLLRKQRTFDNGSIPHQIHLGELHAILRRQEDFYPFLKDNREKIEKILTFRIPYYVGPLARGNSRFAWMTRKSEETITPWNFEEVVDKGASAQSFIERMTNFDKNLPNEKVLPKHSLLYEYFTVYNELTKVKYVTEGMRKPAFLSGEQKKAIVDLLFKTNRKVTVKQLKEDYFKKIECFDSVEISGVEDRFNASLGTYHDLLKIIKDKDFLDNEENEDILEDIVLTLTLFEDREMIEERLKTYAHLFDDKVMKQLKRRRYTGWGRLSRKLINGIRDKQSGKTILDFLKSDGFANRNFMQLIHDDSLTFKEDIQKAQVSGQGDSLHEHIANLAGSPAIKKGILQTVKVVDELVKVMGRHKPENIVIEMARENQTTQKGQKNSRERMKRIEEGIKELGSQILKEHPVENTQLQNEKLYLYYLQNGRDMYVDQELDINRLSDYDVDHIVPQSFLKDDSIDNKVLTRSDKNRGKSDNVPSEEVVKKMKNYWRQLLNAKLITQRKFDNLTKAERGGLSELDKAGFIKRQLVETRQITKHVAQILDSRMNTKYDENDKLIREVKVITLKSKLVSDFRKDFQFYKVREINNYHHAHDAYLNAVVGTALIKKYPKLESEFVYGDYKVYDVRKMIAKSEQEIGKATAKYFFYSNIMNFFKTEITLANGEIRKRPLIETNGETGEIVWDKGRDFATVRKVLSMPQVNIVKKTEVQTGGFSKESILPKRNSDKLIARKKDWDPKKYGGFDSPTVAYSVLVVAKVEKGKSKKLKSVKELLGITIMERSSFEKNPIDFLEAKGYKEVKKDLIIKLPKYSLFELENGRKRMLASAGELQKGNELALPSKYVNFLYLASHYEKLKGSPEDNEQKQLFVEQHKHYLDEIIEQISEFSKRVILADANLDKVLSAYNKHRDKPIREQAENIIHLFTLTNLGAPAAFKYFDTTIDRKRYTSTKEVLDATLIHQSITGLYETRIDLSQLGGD

B1: Cognate DNA + guide RNA (mixed)
DNA 1: AACGCAACGTCGTCAGCTGTCTGCACAGCAGAAATCTCTGCTGACGCATAAAGATGAGACGCTGGAGTACAAACGTCAGCTTGCT
DNA 2: AGCAAGCTGACGTTTGTACTCCAGCGTCTCATCTTTATGCGTCAGCAGAGATTTCTGCTGTGCAGACAGCTGACGACGTTGCG
RNA 1: GACGCAUAAAGAUGAGACGCGUUUUAGAGCUAUGCUGUUUUG
RNA 2: GGACAGCAUAGCAAGUUAAAAUAAGGCUAGUCCGUUAUCAACUUGAAAAAGUGGCACCGAGUCGGUGCUUUUU
Consider B1, for which, in the data set with Cas9 (SpCas9) [1], the binding result is given as “binds”.

B2: 10-20mm (mixed)
DNA 1: AACGCAACGTCGTCAGCTGTCTGCACAGCAGAAATCTCTGCTCTGCGTATTTCATGAGACGCTGGAGTACAAACGTCAGCTTGCT
DNA 2: AGCAAGCTGACGTTTGTACTCCAGCGTCTCATGAAATACGCAGAGCAGAGATTTCTGCTGTGCAGACAGCTGACGACGTTGCG
RNA 1: B1 RNA 1
RNA 2: B1 RNA 2
Turning to B2, the binding result in the data set with Cas9 (SpCas9) [2] is recorded as “binds”.

B3: 11-20mm (mixed)
DNA 1: B2 DNA 1 with C53G
DNA 2: B2 DNA 2 with G33C
RNA 1: B1 RNA 1
RNA 2: B1 RNA 2
Regarding B3, the binding result with Cas9 (SpCas9) [2] is “binds”.

B4: 12-20mm (mixed)
DNA 1: B2 DNA 1 with T52A, C53G
DNA 2: B2 DNA 2 with G33C, A34T
RNA 1: B1 RNA 1
RNA 2: B1 RNA 2
Regarding B4, in the data set with Cas9 (SpCas9) [2], the binding result was “binds”.

B5: 17-20mm (mixed)
DNA 1: B1 DNA 1 with G43C, A44T, C45G, G46C
DNA 2: B1 DNA 2 with C40G, G41C, T42A, C43G
RNA 1: B1 RNA 1
RNA 2: B1 RNA 2
For B5, the binding result with Cas9 (SpCas9) [2] is “binds”.

B6: 13-20mm (mixed)
DNA 1: B2 DNA 1 with T51A, T52A, C53G
DNA 2: B2 DNA 2 with G33C, A34T, A35T
RNA 1: B1 RNA 1
RNA 2: B1 RNA 2
B6: the binding result with Cas9 (SpCas9) [2] is “binds”.

B7: 9-20mm (mixed)
DNA 1: B2 DNA 1 with A54T
DNA 2: B2 DNA 2 with T32A
RNA 1: B1 RNA 1
RNA 2: B1 RNA 2
With B7, the binding result with Cas9 (SpCas9) [3] is recorded as “binds”.

Source of the values: publication PMC5027287, “Real-time observation of DNA recognition and rejection by the RNA-guided endonuclease Cas9”.
